Where two headings read alike, the source gives them in different places. Where no end group is shown, it is not given here.
T1: Peptide-67 (cysteine pairing not given here; also: biotinylated, site not given here)
T1 construct: mask peptide for the CD3 scFv
T1 peptide: VYCGPEFDESVGCM

T2: Peptide-68 (cysteine pairing not given here; also: biotinylated, site not given here)
T2 construct: mask peptide for the CD3 scFv
T2 peptide: DWCWYSPDNDGLCD

T3: Peptide-71 (cysteine pairing not given here; also: biotinylated, site not given here)
T3 construct: mask peptide for the CD3 scFv
T3 peptide: VDCGPDGDESILCY

T4: Peptide-70 (cysteine pairing not given here; also: biotinylated, site not given here)
T4 construct: mask peptide for the CD3 scFv
T4 peptide: YLCGPDGDETLACY

T5: Peptide-72 (cysteine pairing not given here; also: biotinylated, site not given here)
T5 construct: mask peptide for the CD3 scFv
T5 peptide: AYCGPEFDESVGCM

T6: Peptide-66 (cysteine pairing not given here; also: biotinylated, site not given here)
T6 construct: mask peptide for the CD3 scFv
T6 peptide: GSQCLGPEWEVCPY

T7: Peptide-75 (cysteine pairing not given here; also: biotinylated, site not given here)
T7 construct: mask peptide for the CD3 scFv
T7 peptide: GSACLGPEWEVCPY

T8: Peptide-65 (cysteine pairing not given here; also: biotinylated, site not given here)
T8 construct: mask peptide for the CD3 scFv
T8 peptide: QGCGTIADPEPHCW

T9: Peptide-73 (cysteine pairing not given here; also: biotinylated, site not given here)
T9 construct: mask peptide for the CD3 scFv
T9 peptide: VYCGPEFDESVGCA

T10: Peptide-74 (cysteine pairing not given here; also: biotinylated, site not given here)
T10 construct: mask peptide for the CD3 scFv
T10 peptide: ASQCLGPEWEVCPY

T11: Peptide-69 (cysteine pairing not given here; also: biotinylated, site not given here)
T11 construct: mask peptide for the CD3 scFv
T11 peptide: SECLVDLQSDPCYW

T12: Human TROP2 ECD (31-274 AA), biotinylated (human, UniProt P09758 31-274, biotinylated (site not stated))
T12 construct: also called tumor-associated calcium signal transducer 2; Human TROP2-biotin
T12 sequence: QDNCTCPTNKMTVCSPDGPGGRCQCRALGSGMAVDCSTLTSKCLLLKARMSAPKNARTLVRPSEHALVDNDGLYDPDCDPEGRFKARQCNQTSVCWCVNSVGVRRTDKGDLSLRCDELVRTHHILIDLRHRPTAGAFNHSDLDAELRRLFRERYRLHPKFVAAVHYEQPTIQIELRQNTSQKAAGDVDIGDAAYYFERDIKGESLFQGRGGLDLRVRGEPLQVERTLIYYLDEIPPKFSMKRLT


Tests used:
[1] = molecular target: T13, CD3 (biotinylated CD3 antigen) (human, UniProt P07766 23-126, limits assumed, biotinylated (site not stated)); assay: ELISA, TCE on captured biotin-CD3
T13 construct: also called CD3ε; human CD3
T13 sequence (P07766 23-126 limits assumed): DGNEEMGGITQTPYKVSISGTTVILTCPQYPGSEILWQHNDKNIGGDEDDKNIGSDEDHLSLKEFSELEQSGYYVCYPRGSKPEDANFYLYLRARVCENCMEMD

Peptide-67 = molecular target: T1, Peptide-67; assay: ELISA, TCE on captured biotin-peptide
Peptide-68 = molecular target: T2, Peptide-68; assay: ELISA, TCE on captured biotin-peptide
Peptide-71 = molecular target: T3, Peptide-71; assay: ELISA, TCE on captured biotin-peptide
Peptide-70 = molecular target: T4, Peptide-70; assay: ELISA, TCE on captured biotin-peptide
Peptide-72 = molecular target: T5, Peptide-72; assay: ELISA, TCE on captured biotin-peptide
Peptide-66 = molecular target: T6, Peptide-66; assay: ELISA, TCE on captured biotin-peptide
Peptide-75 = molecular target: T7, Peptide-75; assay: ELISA, TCE on captured biotin-peptide
Peptide-65 = molecular target: T8, Peptide-65; assay: ELISA, TCE on captured biotin-peptide
Peptide-73 [2] = molecular target: T9, Peptide-73; assay: ELISA, TCE on captured biotin-peptide
Peptide-74 = molecular target: T10, Peptide-74; assay: ELISA, TCE on captured biotin-peptide
[3] = molecular target: T13, CD3 (biotinylated CD3 antigen); assay: ELISA: biotinylated CD3 captured on neutravidin plates, TCE titrated, HRP secondary antibody
Peptide-69 = molecular target: T11, Peptide-69; assay: ELISA, TCE on captured biotin-peptide
Peptide-73 [4] = molecular target: T9, Peptide-73; assay: ELISA, TCE on captured biotin-peptide
[5] = molecular target: T12, Human TROP2 ECD (31-274 AA), …; assay: ELISA on immobilized TROP2

EC50 [1] | EC50 (Peptide-67) | EC50 (Peptide-68) | EC50 (Peptide-71) | EC50 (Peptide-70) | EC50 (Peptide-72) | EC50 (Peptide-66) | EC50 (Peptide-75) | EC50 (Peptide-65) | EC50 (Peptide-73 [2]) | EC50 (Peptide-74) | EC50 [3] | EC50 (Peptide-69) | EC50 (Peptide-73 [4]) | EC50 [5] | Binder
0.95 nM | 10.5 nM | 794 nM | 4.87 nM | 0.59 nM | 11.2 nM | 26.4 nM | 38.2 nM | 220 nM | 12.2 nM | 23.4 nM |  |  |  |  | TCE-22 (anti-CD3 scFv W112A; anti-TROP2 wt) (bispecific antibody, scFv on the Fab heavy chain; also called TCE-22 (W112A)) light: DIQLTQSPSSLSASVGDRVSITCKASQDVSIAVAWYQQKPGKAPKLLIYSASYRYTGVPDRFSGSGSGTDFTLTISSLQPEDFAVYYCQQHYITPLTFGAGTKVEIKRTVAAPSVFIFPPSDEQLKSGTASVVCLLNNFYPREAKVQWKVDNALQSGNSQESVTEQDSKDSTYSLSSTLTLSKADYEKHKVYACEVTHQGLSSPVTKSFNRGEC heavy: not shown
24 nM | 5.96 nM | 2.29 nM | 112 nM | 8 nM | 5.66 nM | 6.34 nM | 7.08 nM |  |  | 5.33 nM | 8.65 nM | 0.29 nM | 7.03 nM |  | TCE-31 (anti-CD3 scFv W238A; anti-TROP2 wt) (bispecific antibody, scFv on the Fab heavy chain; also called TCE-31 (W238A)) light: DIQLTQSPSSLSASVGDRVSITCKASQDVSIAVAWYQQKPGKAPKLLIYSASYRYTGVPDRFSGSGSGTDFTLTISSLQPEDFAVYYCQQHYITPLTFGAGTKVEIKRTVAAPSVFIFPPSDEQLKSGTASVVCLLNNFYPREAKVQWKVDNALQSGNSQESVTEQDSKDSTYSLSSTLTLSKADYEKHKVYACEVTHQGLSSPVTKSFNRGEC heavy: not shown
592 nM | 77.7 nM | 381 nM | 106 nM | 11.9 nM | 76.9 nM | 49.1 nM | 95.6 nM | 1080 nM |  | 64.2 nM |  | 572 nM |  |  | TCE-21 (anti-CD3 scFv Y111A; anti-TROP2 wt) (bispecific antibody, scFv on the Fab heavy chain; also called TCE-21 (Y111A)) light: DIQLTQSPSSLSASVGDRVSITCKASQDVSIAVAWYQQKPGKAPKLLIYSASYRYTGVPDRFSGSGSGTDFTLTISSLQPEDFAVYYCQQHYITPLTFGAGTKVEIKRTVAAPSVFIFPPSDEQLKSGTASVVCLLNNFYPREAKVQWKVDNALQSGNSQESVTEQDSKDSTYSLSSTLTLSKADYEKHKVYACEVTHQGLSSPVTKSFNRGEC heavy: not shown
 |  |  |  |  |  |  |  |  |  |  |  |  | 0.35 nM |  | TCE-27 (anti-CD3 scFv Y234A; anti-TROP2 wt) (bispecific antibody, scFv on the Fab heavy chain) light: DIQLTQSPSSLSASVGDRVSITCKASQDVSIAVAWYQQKPGKAPKLLIYSASYRYTGVPDRFSGSGSGTDFTLTISSLQPEDFAVYYCQQHYITPLTFGAGTKVEIKRTVAAPSVFIFPPSDEQLKSGTASVVCLLNNFYPREAKVQWKVDNALQSGNSQESVTEQDSKDSTYSLSSTLTLSKADYEKHKVYACEVTHQGLSSPVTKSFNRGEC heavy: not shown
 |  |  |  |  |  |  |  |  |  |  |  |  |  | 49.4 nM | PC-1 (bispecific antibody, anti-TROP2 wt) light: GGVDFCKIYSWPVCHQGGGGSGGLSGRSDAGSPLGLAGSGGSDIQLTQSPSSLSASVGDRVSITCKASQDVSIAVAWYQQKPGKAPKLLIYSASYRYTGVPDRFSGSGSGTDFTLTISSLQPEDFAVYYCQQHYITPLTFGAGTKVEIKRTVAAPSVFIFPPSDEQLKSGTASVVCLLNNFYPREAKVQWKVDNALQSGNSQESVTEQDSKDSTYSLSSTLTLSKADYEKHKVYACEVTHQGLSSPVTKSFNRGEC heavy: not shown

— patent publication US20230357429A1 (JANUX THERAPEUTICS, published 2023)
